# IntAct's records for PubMed 10545207
# B1: GTP-binding protein Rit2 (Mus musculus), P70425 (parent)
# chain: MEVENEAHCCPGSSSGGSREYKVVMLGAGGVGKSAVTMQFISHQFPDYHDPTIEDAYKTQVRIDNEPAYLDILDTAGQAEFTAMREQYMRGGEGFIICYSVTDRQSFQEAAKFKELIFQVRHTYEIPLVLVGNKIDLEQFRQVSTEEGMNLARDYNCAFFETSAALRFGIDDAFQGLVREIRRKESMLSLVERKLKRKDSLWKKIKASLKKKRENML
# partner: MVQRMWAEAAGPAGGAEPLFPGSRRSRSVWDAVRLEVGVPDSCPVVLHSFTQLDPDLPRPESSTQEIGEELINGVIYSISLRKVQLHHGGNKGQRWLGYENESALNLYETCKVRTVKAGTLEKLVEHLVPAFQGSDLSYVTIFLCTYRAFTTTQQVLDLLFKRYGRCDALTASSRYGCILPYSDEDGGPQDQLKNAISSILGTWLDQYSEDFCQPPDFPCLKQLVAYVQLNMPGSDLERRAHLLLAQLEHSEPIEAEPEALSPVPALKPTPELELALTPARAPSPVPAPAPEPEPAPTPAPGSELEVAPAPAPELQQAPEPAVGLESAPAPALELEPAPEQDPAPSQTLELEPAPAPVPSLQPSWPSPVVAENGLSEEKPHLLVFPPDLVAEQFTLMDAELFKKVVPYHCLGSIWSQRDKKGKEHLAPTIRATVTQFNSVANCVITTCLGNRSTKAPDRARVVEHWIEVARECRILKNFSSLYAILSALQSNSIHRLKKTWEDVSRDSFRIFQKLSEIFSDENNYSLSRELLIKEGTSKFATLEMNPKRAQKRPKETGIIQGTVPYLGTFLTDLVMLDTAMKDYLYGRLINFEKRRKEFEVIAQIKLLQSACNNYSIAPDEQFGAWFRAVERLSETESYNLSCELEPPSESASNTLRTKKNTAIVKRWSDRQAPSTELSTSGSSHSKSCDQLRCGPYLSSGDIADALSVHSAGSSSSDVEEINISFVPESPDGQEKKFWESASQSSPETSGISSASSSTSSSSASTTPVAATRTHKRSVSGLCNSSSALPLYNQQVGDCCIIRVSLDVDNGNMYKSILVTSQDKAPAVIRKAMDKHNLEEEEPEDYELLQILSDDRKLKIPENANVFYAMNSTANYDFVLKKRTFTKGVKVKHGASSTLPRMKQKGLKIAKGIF
# B2: GTP-binding protein Rit2 (Mus musculus), P70425 (parent)
# chain: B1 chain
# Variants of: B1
# Settings: with gnds_human RALGDS
row,effect of a mutation on the interaction,Variant
1,decreasing interaction,MEVENEAHCCPGSSSGGSREYKVVMLGAGGVGKNAVTMQFISHQFPDYHDPTIEDAYKTQVRIDNEPAYLDILDTAGQAEFTAMREQYMRGGEGFIICYSVTDRQSFQEAAKFKELIFQVRHTYEIPLVLVGNKIDLEQFRQVSTEEGMNLARDYNCAFFETSAALRFGIDDAFQGLVREIRRKESMLSLVERKLKRKDSLWKKIKASLKKKRENML [S34N]

# Variants of: B2
# Settings: with rlf_human RLF
row,effect of a mutation on the interaction,Variant
1,decreasing interaction,MEVENEAHCCPGSSSGGSREYKVVMLGAGGVGKNAVTMQFISHQFPDYHDPTIEDAYKTQVRIDNEPAYLDILDTAGQAEFTAMREQYMRGGEGFIICYSVTDRQSFQEAAKFKELIFQVRHTYEIPLVLVGNKIDLEQFRQVSTEEGMNLARDYNCAFFETSAALRFGIDDAFQGLVREIRRKESMLSLVERKLKRKDSLWKKIKASLKKKRENML [S34N]

# Variants of: B2
# Settings: with afad_human AFDN
row,effect of a mutation on the interaction,Variant
1,decreasing interaction,MEVENEAHCCPGSSSGGSREYKVVMLGAGGVGKNAVTMQFISHQFPDYHDPTIEDAYKTQVRIDNEPAYLDILDTAGQAEFTAMREQYMRGGEGFIICYSVTDRQSFQEAAKFKELIFQVRHTYEIPLVLVGNKIDLEQFRQVSTEEGMNLARDYNCAFFETSAALRFGIDDAFQGLVREIRRKESMLSLVERKLKRKDSLWKKIKASLKKKRENML [S34N]
